{"source": "paper PMC8490876", "about": "“Functional Characterization of a L-2-Haloacid Dehalogenase From Zobellia galactanivorans Dsij^T Suggests a Role in Haloacetic Acid Catabolism and a Wide Distribution in Marine Environments” (Frontiers in Microbiology, 2021)", "proteins": {"B1": {"name": "ZgHAD (Zobellia galactanivorans) (protein)", "chain": "MSAKVKKPELLIFDVNETLLDMGPLENAINESLNSEHAFSLWFRTLLHYSLTETLTGNYVDFGTIGKATLKMTMRKFGKNLSEDRLDAILGNIKKLPAHEDVKEGLKMLKEAQIKLVALSNSNGKLLNAQLQFAGLADYFDAIFSVEAVGRYKPELASYRAVLETMKVPAENTMMVAAHGWDILGAKRAGLRTAFVAREGHAIYPLDGTPELEAKTVLEVARTLLKN", "notes": "recombinant, pFO4 vector, E. coli BL21 (DE3); homodimer in solution"}}, "key": {"purified protein [1]": {"substrate": "O=C(O)CI", "experiment": "purified protein", "type": "biochemical, Zobellia galactanivorans", "settings": "20 °C, 1 mM HEPES, 1 mM EDTA, 20 mM sodium sulfate, 56 μM phenol red, pH 8.2 (initial), 0.3 mg/ml enzyme"}, "purified protein [2]": {"substrate": "O=C(O)CBr", "experiment": "purified protein", "type": "biochemical, Zobellia galactanivorans", "settings": "20 °C, 1 mM HEPES, 1 mM EDTA, 20 mM sodium sulfate, 56 μM phenol red, pH 8.2 (initial), 0.3 mg/ml enzyme"}}, "data": [{"protein": "B1", "values": [{"measurement": "Km", "setting": "purified protein [1]", "result": 310, "unit": "µM"}, {"measurement": "Km", "setting": "purified protein [2]", "result": 460, "unit": "µM"}]}]}
